In paper PMC10202812, “Resilience to autosomal dominant Alzheimer’s disease in a Reelin-COLBOS heterozygous man” (Nature Medicine, 2023):

Biological target: T1, neuropilin 1 (NRP1) (UniProt O14786 22-856, biotinylated at a 1:2 molar ratio)
T1 construct: neuropilin 1 (NRP1), recombinant, R&D Systems catalog no; 3870-N1-025; source: bought: R&D Systems (catalog no. 3870-N1-025)
T1 sequence (looked up): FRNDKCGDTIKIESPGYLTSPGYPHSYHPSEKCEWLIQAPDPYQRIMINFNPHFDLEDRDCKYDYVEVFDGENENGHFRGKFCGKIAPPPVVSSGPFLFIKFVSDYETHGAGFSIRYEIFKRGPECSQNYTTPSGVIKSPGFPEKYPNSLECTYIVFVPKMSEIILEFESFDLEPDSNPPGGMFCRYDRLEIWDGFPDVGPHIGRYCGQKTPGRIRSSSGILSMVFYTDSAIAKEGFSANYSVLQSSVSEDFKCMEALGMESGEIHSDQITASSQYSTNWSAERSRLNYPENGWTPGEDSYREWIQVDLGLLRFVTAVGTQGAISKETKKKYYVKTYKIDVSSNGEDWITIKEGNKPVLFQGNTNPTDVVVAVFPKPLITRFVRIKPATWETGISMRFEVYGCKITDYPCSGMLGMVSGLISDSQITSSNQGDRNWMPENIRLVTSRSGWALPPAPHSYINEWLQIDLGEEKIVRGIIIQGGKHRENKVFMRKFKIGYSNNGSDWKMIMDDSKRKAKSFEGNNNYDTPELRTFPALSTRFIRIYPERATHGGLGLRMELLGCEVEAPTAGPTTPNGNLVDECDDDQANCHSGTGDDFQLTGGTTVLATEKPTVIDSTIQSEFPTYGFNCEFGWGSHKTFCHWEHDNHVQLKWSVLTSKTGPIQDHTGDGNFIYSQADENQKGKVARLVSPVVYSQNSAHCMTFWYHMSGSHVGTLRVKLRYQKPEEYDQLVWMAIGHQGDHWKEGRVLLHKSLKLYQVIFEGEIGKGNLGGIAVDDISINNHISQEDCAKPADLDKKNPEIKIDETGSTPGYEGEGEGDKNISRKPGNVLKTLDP
Test: BLI; biotinylated NRP1 immobilised on streptavidin biosensor tips (Octet); 30 °C, 1,000 rpm; 240 s association, 300 s dissociation; SD Buffer (PBS, 0.05% Tween 20, 0.01% BSA, pH 7.4); 1:1 binding model, global fitting
Conditions: both partners purified

B1: Fc-fusion CTR-RELN H3447R (CTR-RELN-COLBOS) (Fc fusion, human, UniProt P78509 3429-3460, looked up)
chain: STRKQNYMMNFSRQHGLRRFYNRRRRSLRRYP
notes: Reelin (RELN), C-terminal region, amino acids 3,429-3,460 (numbers of the 3,460-residue human protein), with the natural variant H3447R (COLBOS); source: DNA encoding amino acids 3,429-3,460 of RELN-CTR cloned into the pFUSEN-hG2Fc plasmid (InvivoGen)
fold affinity against WT CTR-RELN: 10 fold
